Reference: paper PMC4411359

Molecular target: YFP-tagged CREB-binding protein (UniProt Q92793)
Experiment: MST

Sequence of UniProt Q92793 (Q92793 whole entry): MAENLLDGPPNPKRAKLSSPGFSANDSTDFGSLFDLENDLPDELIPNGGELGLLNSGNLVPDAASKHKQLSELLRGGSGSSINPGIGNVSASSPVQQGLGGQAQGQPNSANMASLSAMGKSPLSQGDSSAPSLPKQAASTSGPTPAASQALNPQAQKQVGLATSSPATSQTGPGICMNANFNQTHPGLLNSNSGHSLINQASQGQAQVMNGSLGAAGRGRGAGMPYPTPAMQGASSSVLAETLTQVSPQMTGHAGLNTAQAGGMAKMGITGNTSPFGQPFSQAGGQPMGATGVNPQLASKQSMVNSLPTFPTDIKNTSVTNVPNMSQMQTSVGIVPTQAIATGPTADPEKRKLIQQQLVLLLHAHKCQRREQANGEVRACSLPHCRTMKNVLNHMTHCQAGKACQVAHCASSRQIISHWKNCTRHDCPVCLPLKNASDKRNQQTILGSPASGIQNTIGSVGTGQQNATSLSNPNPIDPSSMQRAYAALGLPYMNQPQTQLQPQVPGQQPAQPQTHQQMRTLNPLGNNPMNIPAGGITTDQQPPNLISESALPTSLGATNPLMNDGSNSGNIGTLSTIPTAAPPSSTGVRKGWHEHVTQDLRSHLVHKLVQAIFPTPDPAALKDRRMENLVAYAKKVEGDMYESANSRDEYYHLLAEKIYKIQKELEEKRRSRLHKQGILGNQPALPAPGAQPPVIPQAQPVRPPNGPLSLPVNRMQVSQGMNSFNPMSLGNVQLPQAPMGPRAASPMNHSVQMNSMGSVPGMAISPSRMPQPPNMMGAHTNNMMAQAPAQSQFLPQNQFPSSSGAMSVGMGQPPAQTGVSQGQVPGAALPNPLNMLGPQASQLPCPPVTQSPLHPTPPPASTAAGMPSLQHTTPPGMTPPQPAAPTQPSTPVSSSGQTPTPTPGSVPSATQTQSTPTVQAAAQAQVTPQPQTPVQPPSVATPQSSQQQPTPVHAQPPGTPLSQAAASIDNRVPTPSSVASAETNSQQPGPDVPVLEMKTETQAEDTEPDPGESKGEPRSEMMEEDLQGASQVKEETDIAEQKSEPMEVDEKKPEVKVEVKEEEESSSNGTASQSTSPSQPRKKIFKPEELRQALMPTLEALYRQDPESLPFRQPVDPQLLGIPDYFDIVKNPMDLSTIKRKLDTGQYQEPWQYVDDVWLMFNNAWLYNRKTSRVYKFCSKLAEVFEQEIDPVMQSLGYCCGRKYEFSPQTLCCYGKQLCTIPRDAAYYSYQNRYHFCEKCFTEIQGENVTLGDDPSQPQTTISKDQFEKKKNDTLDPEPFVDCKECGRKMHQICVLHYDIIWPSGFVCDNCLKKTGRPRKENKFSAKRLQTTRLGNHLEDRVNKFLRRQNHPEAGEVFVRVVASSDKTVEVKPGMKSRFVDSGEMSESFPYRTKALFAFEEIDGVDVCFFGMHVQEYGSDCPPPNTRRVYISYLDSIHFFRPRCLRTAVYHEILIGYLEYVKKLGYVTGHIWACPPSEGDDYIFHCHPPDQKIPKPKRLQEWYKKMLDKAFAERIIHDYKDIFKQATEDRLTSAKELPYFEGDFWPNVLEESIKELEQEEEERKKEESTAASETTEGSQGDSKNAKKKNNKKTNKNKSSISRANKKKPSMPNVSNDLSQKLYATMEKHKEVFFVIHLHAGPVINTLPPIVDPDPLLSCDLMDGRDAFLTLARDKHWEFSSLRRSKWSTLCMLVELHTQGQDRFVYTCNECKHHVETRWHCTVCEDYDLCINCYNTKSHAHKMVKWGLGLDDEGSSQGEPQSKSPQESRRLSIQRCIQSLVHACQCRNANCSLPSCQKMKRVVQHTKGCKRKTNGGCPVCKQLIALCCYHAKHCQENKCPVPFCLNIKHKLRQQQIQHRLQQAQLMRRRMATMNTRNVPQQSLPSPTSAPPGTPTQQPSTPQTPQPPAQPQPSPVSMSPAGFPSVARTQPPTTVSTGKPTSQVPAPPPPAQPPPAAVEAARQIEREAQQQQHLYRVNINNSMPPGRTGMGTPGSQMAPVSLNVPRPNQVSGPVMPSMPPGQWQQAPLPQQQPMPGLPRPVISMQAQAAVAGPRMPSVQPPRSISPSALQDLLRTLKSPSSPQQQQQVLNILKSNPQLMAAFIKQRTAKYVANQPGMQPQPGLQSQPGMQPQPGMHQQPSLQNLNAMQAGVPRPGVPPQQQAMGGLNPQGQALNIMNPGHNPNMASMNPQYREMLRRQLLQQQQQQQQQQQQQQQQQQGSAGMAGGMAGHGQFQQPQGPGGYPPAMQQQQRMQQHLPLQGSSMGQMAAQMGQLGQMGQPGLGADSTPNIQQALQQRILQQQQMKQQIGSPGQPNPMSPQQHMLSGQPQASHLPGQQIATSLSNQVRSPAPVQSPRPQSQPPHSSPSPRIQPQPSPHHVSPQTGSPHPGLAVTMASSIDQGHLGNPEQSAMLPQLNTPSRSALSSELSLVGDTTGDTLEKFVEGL

fold decrease of affinity against wild-type HA-TDG: > 3 fold
Substance: HA-tagged human thymine DNA glycosylase P65A mutant (from UniProt Q13569 1-410) (enzyme)
